# B1: Recombinant human TS5-p45 (C-terminal His-tagged, Ser262-Pro622 truncate of ADAMTS5) (domain or fragment, UniProt Q9UNA0 262-622, looked up)
# chain: SISRARQVELLLVADASMARLYGRGLQHYLLTLASIANRLYSHASIENHIRLAVVKVVVLGDKDKSLEVSKNAATTLKNFCKWQHQHNQLGDDHEEHYDAAILFTREDLCGHHSCDTLGMADVGTICSPERSCAVIEDDGLHAAFTVAHEIGHLLGLSHDDSKFCEETFGSTEDKRLMSSILTSIDASKPWSKCTSATITEFLDDGHGNCLLDLPRKQILGPEELPGQTYDATQQCNLTFGPEYSVCPGMDVCARLWCAVVRQGQMVCLTKKLPAVEGTPCGKGRICLQGKCVDKTKKKYYSTSSHGNWGSWGSWGQCSRSCGGGVQFAYRHCNNPAPRNNGRYCTGKRAIYRSCSLMPCP
# notes: ADAMTS5 (A Disintegrin and Metalloproteinase with Thrombospondin Motifs 5, aggrecanase-2), human, residues Ser262-Pro622; also called 45 kDa truncate of ADAMTS5; source: bought: R&D Systems (2198-AD-01M); not shown: His tag, C-terminal, kept
# How the values were obtained:
# [1] = target: T1, FLAG-tagged full-length NCL (NCL-FL 1-710) (UniProt P19338 1-710); experiment: ELISA; saturation binding: FLAG-NCL-FL from HEK293T whole cell lysate captured on anti-FLAG antibody-coated plate; TS5-p45 titrated, 4 C overnight; anti-His detection; conditions: one partner purified
# T1 construct: Nucleolin (NCL), residues 1-710, in pCMV-Tag2; the length of 710 residues fits human nucleolin; source: HEK293T, transiently transfected, in whole cell lysate; not shown: FLAG, N-terminal, kept
# T1 sequence (P19338 whole entry, the tested form may be a part): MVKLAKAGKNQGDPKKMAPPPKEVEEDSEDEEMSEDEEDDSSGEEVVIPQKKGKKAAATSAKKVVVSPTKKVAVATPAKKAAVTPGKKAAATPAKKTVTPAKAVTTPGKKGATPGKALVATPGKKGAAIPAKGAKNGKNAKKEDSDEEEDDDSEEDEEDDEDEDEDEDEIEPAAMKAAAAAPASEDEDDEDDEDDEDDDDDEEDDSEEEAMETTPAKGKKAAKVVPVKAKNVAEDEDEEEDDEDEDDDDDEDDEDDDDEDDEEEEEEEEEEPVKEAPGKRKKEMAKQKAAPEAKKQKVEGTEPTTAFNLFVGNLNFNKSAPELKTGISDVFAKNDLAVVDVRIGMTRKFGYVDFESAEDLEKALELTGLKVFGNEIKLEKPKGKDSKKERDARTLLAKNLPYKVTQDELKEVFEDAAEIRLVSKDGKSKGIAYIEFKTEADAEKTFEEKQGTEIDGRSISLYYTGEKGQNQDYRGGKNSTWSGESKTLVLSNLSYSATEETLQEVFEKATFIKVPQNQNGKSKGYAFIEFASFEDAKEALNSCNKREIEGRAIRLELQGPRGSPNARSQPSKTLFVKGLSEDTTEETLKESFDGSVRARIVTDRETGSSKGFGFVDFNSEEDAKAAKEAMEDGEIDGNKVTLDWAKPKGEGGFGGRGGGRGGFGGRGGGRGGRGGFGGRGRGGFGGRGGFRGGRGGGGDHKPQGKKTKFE
# [2] = target: T2, Recombinant human NCL (FLAG-tagged, full length) (human, UniProt P19338 1-710); experiment: SPR; Biacore T200, CM5 chip; recombinant NCL captured by amine-coupled anti-NCL antibody; TS5-p45 as analyte, five dilutions, single-cycle kinetics; 25 C; HBST (10 mM HEPES, 150 mM NaCl, 50 uM EDTA, pH 7.4, 0.05% Tween-20); 1:1 model; conditions: both partners purified
# T2 construct: Nucleolin (NCL), human, full length; also called rhNCL; recombinant NCL; source: bought: OriGene (TP319082)
# T2 sequence (P19338 whole entry): as the sequence (P19338 whole entry, the tested form may be a part) above
binder,measurement,setting,value
B1,Kd,[1],~26 nM
same,Kd,[2],~28 nM
